Earlier results on 1 substance are cited in publication PMC9871372.

The target of this series is NisA precursor peptide (Lactococcus lactis) (UniProt P13068).
UniProt P13068, sequence (P13068 24-57): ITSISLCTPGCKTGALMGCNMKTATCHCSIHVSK

As a reminder, the Kd is a measure of binding affinity in units of concentration. For the substance NisB (from UniProt P20103), the Kd was 1.05 µM.
